# Experimental data: the supplement of paper PMC10899765
# Experiments:
# Conditions in all cases: 20 nM; 72 h
# MCF10A [1] = experiment: 5+ nucleoli phenotype percent effect (relative to siNT 0% and siKIF11 100%); higher = more cells with five or more nucleoli
# Experimental: (§1)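 After 72 h, cells were fixed and stained with Hoechst and anti-fibrillarin, and nucleoli per nucleus were counted with CellProfiler. Values are plate-adjusted percent effect for the one-nucleolus and 5+ nucleoli phenotypes, normalised to siNT (0%) and to the positive controls siNOL11 or siKIF11 (100%), as the mean of biological triplicates. Percent viability is the nuclei count relative to siNT.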
# MCF10A [2] = experiment: one-nucleolus phenotype percent effect (relative to siNT 0% and siNOL11 100%); higher = more cells with one nucleolus (ribosome biogenesis inhibition)
# Experimental: as §1
# MCF10A [3] = experiment: percent viability (nuclei count relative to siNT); higher = more viable cells
# Experimental: as §1
Sequence,5+ nucleoli phenotype percent effect (MCF10A [1]) [%],one-nucleolus phenotype percent effect (MCF10A [2]) [%],percent viability (MCF10A [3]) [%]
UGGAGUUAAGGGUUGCUUGGAGA [hsa-miR-4653-3p],-39.9,47.6,12.9
AACUGGCCCUCAAAGUCCCGCU [hsa-miR-193b-3p],-6.55,24.4,16.9
CUUUCAGUCGGAUGUUUACAGC [hsa-miR-30e-3p],14.5,-11.8,126
CAAUCACUAACUCCACUGCCAU [hsa-miR-34b-3p],11,-6.72,50.1
UCUGAGAGAGCUCGAUGGCAG [hsa-miR-6761-5p],9.71,-17.3,56.8
AACCCAGUGGGCUAUGGAAAUG [hsa-miR-4482-5p],-41,59.8,24.6
CUGUUGCCACUAACCUCAACCU [hsa-miR-744-3p],-44.1,27.3,56
ACUGAGCCUCUCUCUCUCCAG [hsa-miR-6751-3p],-22.5,-10.3,65.4
UUUUGCAAUAUGUUCCUGAAUA [hsa-miR-450b-5p],14.4,-22.9,108
AGGGCAUGUCCAGGGGGU [hsa-miR-4253],17.7,18.3,28.5
UUAGUCUCAUGAUCAGACACA [hsa-miR-4474-5p],35.6,-23.4,29.8
ACCCCUCGUUUCUUCCCCCAG [hsa-miR-6795-3p],14.8,-18.5,101
GUUUGCACGGGUGGGCCUUGUCU [hsa-miR-557],-30.1,34.6,47.7
GCUUCUGUAGUGUAGUC [hsa-miR-3182],35.6,-17.1,57
GAGGGUCUUGGGAGGGAUGUGAC [hsa-miR-1182],44.5,-20.9,104
CAUCUCUAAGGAACUCCCCCAA [hsa-miR-3675-3p],8.48,10.4,62
CGGCUCUGGGUCUGUGGGGA [hsa-miR-760],-2.61,7.07,53
UGGGCUCAGGGUACAAAGGUU [hsa-miR-4437],-5.83,28.8,24.3
CUGGAGAUAUGGAAGAGCUGUGU [hsa-miR-1270],-41.4,38.6,34.1
GUUCCUGCUGAACUGAGCCAG [hsa-miR-3074-5p],-17.7,-7.07,42.2
AUAAAGCUAGAUAACCGAAAGU [hsa-miR-9-3p],-46.1,48.4,44.1
CUUAUCAGAUUGUAUUGUAAUU [hsa-miR-374a-3p],33,-24.3,160
AACCUUGGCCCCUCUCCCCAG [hsa-miR-6813-3p],67.7,-35.3,75.9
UCAUUUUUGUGAUGUUGCAGCU [hsa-miR-153-5p],3.53,-16.7,55

Sequence,5+ nucleoli phenotype percent effect (MCF10A [1]) [%],one-nucleolus phenotype percent effect (MCF10A [2]) [%],percent viability (MCF10A [3]) [%]
UUGGAAGCUUGGACCAACUAGCUG [hsa-miR-6079],-27.8,28.7,31.5
CCAGAGCAGCCUGCGGUAACAGU [hsa-miR-6501-3p],-17.2,1.17,35.1
CAACGGAAUCCCAAAAGCAGCUG [hsa-miR-191-5p],2.25,11.8,29.2
CUUGAGUCGUGCCUUUCUGAAUG [hsa-miR-8081],-17.9,14,95.5
UAUGGAGGUUCUAGACCAUGUU [hsa-miR-4802-5p],7.79,26.9,22.7
CUAUACAACCUACUGCCUUCCC [hsa-let-7b-3p],-18.8,10.1,32.4
AAUAAUAUCACAGUAGGUGU [hsa-miR-5692b],46.7,-19.9,155
ACCGUGCAAAGGUAGCAUA [hsa-miR-1973],-30.8,2.66,119
GACACGGGCGACAGCUGCGGCCC [hsa-miR-602],45.6,-18.7,91.9
GUGGGUACGGCCCAGUGGGGGG [hsa-miR-1225-5p],64.9,-23.1,94.3
AAAAGCAUCAGGAAGUACCCA [hsa-miR-4422],2.92,-9.65,58.8
CCAGAGAUGGUUGCCUUCCUAU [hsa-miR-4756-3p],4.75,-3.67,56.8
CAAAAACUGCAAUUACUUUUGC [hsa-miR-548aq-3p],13.8,-26.6,115
UUGCCACACUGCAACACCUUACA [hsa-miR-3064-3p],-31.2,8.14,39.1
UAUUGCACUCGUCCCGGCCUCC [hsa-miR-92b-3p],2.75,-7.61,76.9
CAGUGUUCAGAGAUGGA [hsa-miR-4255],68.6,-51.8,148
CCCAGUGUUUAGACUAUCUGUUC [hsa-miR-199b-5p],26.5,-14.4,170
CCCCAGGGCGACGCGGCGGG [hsa-miR-1915-3p],42.5,-13.1,87.8
ACUGGACUUGGAGCCAGAAG [hsa-miR-378f],33.7,-12.4,45.3
UCUGGUAUGUAGUAGGUAAUAA [hsa-miR-4774-5p],80.9,-25.6,62.8
GUCCACUUCUGCCUGCCCUGCC [hsa-miR-4436b-5p],-0.992,-10.1,51.1
UGUCUAUACUCUGUCACUUUAC [hsa-miR-4796-5p],-19.7,45.9,34.7
UUAUAAUACAACCUGAUAAGUG [hsa-miR-374a-5p],26.1,-14.4,100
AGAAUUGCGUUUGGACAAUCAGU [hsa-miR-2964a-3p],-29.2,34.8,28.5
